# Experimental data reported in article PMC7589864.
# Target: F-actin of thin filaments in ghost fibers from rabbit psoas muscle (rabbit (endogenous in psoas muscle fibers)) (UniProt P68135)
# Assay: polarized microfluorimetry of ghost muscle fibers; 5-IAF-labelled Tpm incorporated into ghost fibers (2 mg/mL, 2-3 h); sum of the four polarized fluorescence intensities of Tpm-AF, in the presence of S1
# recombinant control (wild-type) human tropomyosin Tpm2.2 (natural protein), sequence (P07951 whole entry): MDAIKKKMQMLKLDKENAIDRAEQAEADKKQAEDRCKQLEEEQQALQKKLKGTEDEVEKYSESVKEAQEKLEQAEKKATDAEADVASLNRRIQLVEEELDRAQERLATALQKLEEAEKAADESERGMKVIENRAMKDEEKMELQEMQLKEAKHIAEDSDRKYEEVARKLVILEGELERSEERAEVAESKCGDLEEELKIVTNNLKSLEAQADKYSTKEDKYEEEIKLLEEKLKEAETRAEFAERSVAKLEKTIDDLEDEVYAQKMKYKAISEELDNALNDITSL
row,Substance,sum of fluorescence intensities for Tpm-AF (Isum) in ghost fibers
1,recombinant control (wild-type) human tropomyosin Tpm2.2 (natural protein),1030
2,recombinant mutant human tropomyosin Tpm2.2 with the Gln147Pro substitution (natural protein),978
